Key:
Assay in all cases: Kinase Profiling Assay
Assay type in all cases: biochemical
Conditions in all cases: 100 μM
[1] = molecular target: T1, Haspin(h) (Homo sapiens, UniProt Q8TF76)
T1 sequence (Q8TF76 1-798): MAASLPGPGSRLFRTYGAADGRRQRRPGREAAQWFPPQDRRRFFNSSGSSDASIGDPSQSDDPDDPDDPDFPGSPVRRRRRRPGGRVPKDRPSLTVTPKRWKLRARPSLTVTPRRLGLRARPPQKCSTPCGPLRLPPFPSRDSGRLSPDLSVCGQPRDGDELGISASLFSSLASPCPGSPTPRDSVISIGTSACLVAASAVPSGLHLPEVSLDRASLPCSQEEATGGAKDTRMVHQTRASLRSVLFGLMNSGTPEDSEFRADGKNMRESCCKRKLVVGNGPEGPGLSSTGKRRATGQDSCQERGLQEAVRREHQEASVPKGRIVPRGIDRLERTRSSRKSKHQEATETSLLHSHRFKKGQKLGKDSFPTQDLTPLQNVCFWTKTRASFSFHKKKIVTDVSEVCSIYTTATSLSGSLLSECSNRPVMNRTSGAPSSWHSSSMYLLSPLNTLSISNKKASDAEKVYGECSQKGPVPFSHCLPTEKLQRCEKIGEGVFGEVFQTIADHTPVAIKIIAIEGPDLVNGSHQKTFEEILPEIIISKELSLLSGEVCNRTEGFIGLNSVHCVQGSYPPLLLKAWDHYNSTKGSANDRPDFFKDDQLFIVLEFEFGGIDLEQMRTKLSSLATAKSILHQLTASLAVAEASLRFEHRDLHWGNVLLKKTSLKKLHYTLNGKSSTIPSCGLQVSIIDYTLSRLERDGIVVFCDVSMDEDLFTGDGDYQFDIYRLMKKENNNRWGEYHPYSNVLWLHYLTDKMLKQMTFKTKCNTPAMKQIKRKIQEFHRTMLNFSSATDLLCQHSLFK

[2] = molecular target: T2, SAPK3(h) (Homo sapiens, UniProt P53778)
T2 sequence (P53778 1-367): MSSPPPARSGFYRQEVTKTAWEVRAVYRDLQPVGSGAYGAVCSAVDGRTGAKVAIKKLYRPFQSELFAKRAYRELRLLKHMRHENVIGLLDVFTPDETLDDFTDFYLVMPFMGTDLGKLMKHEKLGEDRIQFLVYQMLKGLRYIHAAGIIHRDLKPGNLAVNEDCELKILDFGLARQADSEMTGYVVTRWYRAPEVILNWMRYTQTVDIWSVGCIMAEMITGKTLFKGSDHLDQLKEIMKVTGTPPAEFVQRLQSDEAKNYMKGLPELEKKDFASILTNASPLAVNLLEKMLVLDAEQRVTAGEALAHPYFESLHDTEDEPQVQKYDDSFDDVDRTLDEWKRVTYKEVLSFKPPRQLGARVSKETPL

[3] = molecular target: EphA4(h) (Homo sapiens, UniProt P54764)
Chain of EphA4(h) (P54764 20-986): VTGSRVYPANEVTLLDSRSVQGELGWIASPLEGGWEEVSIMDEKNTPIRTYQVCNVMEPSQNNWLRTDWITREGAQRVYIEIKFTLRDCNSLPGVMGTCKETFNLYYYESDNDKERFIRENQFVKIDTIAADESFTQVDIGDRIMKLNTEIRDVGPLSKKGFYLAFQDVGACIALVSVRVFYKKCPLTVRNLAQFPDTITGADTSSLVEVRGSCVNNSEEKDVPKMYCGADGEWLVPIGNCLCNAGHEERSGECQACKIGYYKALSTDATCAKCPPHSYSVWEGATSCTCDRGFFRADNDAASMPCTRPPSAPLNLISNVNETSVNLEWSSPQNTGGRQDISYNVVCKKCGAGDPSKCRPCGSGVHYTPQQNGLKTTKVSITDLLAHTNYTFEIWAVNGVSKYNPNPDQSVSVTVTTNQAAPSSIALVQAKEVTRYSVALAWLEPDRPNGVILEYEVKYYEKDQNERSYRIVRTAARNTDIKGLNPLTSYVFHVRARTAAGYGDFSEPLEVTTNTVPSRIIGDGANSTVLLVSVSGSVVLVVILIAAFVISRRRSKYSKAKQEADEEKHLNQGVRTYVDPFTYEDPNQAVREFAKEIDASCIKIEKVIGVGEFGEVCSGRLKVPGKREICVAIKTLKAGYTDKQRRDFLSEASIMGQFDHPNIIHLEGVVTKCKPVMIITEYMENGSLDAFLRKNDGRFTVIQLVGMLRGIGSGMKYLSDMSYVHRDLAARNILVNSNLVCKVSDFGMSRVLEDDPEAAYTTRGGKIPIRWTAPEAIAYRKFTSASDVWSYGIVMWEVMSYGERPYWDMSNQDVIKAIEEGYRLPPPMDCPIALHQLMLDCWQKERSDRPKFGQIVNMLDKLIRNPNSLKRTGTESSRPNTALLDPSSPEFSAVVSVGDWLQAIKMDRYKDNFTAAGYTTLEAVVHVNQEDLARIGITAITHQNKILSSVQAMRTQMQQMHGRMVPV

[4] = molecular target: MRCKβ(h) (Homo sapiens, UniProt Q9Y5S2)
Chain of MRCKβ(h) (Q9Y5S2 whole entry): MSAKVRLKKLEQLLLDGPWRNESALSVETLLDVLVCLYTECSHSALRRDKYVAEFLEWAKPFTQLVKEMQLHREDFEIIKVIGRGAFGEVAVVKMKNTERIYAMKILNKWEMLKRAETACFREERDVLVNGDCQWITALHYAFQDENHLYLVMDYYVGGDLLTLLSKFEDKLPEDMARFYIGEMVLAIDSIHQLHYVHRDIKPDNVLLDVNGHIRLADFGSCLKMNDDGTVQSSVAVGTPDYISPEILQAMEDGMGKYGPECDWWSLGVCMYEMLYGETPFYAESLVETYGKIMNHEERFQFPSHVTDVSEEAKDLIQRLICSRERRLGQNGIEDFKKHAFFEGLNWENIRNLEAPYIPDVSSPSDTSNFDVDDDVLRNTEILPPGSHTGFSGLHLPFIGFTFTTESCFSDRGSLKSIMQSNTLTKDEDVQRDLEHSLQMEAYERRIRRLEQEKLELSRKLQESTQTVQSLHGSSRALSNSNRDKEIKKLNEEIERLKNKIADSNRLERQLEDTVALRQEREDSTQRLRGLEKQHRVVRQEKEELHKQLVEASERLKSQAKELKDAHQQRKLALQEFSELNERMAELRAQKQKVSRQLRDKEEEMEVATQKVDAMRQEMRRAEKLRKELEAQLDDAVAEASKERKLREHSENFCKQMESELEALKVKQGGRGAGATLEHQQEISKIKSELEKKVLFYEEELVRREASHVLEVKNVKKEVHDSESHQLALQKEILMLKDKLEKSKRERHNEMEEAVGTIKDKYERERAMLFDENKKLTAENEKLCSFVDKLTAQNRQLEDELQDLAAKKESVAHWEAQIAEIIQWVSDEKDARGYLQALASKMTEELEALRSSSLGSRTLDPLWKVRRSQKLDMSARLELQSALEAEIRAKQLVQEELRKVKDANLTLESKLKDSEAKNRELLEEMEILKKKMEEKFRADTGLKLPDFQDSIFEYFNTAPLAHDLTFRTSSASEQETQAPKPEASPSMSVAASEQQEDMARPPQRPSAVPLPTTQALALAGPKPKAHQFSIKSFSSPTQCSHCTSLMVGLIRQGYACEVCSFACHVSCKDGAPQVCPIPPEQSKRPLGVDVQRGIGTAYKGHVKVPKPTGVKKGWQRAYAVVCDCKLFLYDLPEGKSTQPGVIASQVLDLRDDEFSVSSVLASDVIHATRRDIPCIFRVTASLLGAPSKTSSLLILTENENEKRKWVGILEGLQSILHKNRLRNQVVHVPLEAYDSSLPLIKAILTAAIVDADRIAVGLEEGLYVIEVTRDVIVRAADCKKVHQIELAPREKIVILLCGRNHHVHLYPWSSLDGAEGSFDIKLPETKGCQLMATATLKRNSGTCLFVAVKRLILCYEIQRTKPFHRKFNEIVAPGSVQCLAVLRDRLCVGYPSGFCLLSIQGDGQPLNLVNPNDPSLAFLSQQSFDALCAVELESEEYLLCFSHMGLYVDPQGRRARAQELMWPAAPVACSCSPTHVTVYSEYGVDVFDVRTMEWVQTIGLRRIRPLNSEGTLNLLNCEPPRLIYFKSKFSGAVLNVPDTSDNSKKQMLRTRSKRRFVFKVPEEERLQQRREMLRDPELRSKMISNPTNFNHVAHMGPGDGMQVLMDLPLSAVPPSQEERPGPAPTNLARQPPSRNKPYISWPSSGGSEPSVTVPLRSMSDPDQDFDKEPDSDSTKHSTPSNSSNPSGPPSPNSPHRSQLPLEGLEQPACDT

[5] = molecular target: Hck(h) activated (Homo sapiens, UniProt P08631)
Chain of Hck(h) activated (P08631 whole entry): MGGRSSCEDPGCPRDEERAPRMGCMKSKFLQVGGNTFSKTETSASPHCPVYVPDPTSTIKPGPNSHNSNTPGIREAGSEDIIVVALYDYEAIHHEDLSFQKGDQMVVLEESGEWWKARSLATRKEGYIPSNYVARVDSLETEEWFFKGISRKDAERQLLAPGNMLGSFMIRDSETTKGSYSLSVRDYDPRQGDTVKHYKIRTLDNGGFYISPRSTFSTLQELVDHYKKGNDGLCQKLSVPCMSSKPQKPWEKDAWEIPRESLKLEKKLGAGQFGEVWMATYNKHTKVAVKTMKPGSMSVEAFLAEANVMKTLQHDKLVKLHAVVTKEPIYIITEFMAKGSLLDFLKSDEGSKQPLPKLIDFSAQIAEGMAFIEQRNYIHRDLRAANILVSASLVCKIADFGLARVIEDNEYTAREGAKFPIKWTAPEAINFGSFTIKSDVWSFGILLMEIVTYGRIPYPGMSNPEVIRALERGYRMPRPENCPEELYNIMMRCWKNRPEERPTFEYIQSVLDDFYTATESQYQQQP

[6] = molecular target: cKit(D816V)(h) (Homo sapiens, UniProt P10721, D816V)
[7] = molecular target: T3, CHK1(h) (Homo sapiens, UniProt O14757)
T3 sequence (O14757 1-476): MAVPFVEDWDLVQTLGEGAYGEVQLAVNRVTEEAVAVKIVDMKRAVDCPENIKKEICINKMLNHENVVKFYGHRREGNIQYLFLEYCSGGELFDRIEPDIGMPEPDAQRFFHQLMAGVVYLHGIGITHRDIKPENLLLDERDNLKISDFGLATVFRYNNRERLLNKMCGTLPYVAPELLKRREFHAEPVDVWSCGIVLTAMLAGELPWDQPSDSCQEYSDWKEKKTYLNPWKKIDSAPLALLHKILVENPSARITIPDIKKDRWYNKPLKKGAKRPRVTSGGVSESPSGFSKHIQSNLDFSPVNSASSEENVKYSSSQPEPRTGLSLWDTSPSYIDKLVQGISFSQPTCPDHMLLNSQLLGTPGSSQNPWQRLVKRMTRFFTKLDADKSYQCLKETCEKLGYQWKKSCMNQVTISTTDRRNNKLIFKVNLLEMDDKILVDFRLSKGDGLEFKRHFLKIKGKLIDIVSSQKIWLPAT

[8] = molecular target: BRK(h) (Homo sapiens, UniProt Q13882)
Chain of BRK(h) (Q13882 whole entry): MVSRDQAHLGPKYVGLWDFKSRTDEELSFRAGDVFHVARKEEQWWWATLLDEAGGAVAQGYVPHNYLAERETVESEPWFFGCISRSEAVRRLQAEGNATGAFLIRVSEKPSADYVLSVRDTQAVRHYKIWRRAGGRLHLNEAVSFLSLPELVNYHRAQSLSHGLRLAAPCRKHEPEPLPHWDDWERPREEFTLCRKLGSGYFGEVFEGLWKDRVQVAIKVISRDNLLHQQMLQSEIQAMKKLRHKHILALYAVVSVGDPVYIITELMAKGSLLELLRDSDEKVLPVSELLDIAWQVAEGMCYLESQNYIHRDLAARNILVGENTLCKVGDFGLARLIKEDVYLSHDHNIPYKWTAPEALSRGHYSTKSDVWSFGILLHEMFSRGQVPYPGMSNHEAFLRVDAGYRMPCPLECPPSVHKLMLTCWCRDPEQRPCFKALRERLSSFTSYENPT

[9] = molecular target: DAPK2(h) (Homo sapiens, UniProt Q9UIK4)
Chain of DAPK2(h) (Q9UIK4 whole entry): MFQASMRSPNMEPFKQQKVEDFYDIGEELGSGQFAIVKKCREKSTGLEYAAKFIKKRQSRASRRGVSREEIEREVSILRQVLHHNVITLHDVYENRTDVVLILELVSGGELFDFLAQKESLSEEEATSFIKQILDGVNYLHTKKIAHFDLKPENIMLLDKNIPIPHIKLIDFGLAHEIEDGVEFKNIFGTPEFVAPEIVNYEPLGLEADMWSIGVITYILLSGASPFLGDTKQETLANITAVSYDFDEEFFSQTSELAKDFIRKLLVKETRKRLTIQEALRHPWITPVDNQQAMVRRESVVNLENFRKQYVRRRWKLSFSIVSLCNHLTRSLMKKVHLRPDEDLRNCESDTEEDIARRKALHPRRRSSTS

[10] = molecular target: Pim-3(h) (Homo sapiens, UniProt Q86V86)
[11] = molecular target: T4, TAK1(h) (Homo sapiens, UniProt O43318)
T4 sequence (O43318 1-303 limits assumed): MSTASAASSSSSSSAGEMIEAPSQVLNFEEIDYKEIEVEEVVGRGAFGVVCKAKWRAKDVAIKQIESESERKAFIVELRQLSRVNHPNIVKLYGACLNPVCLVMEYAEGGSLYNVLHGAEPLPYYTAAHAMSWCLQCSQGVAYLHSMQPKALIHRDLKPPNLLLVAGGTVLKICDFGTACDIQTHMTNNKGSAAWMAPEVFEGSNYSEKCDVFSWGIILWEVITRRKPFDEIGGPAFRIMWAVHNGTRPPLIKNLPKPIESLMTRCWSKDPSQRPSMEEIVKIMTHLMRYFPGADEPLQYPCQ

[12] = molecular target: cSRC(h) (Homo sapiens, UniProt P12931)

Sequence	% activity [1] [%]	% activity [2] [%]	% activity [3] [%]	% activity [4] [%]	% activity [5] [%]	% activity [6] [%]	% activity [7] [%]	% activity [8] [%]	% activity [9] [%]	% activity [10] [%]	% activity [11] [%]	% activity [12] [%]
FAKLAARLYRKALARQLGVAA [MMI-0300]	48	84	88	83	82	60	91	35	32	80	122	26
KAFAKLAARLYRKALARQLGVAA [MMI-0400]	36	79	65	71	81	35	87	18	16	80	177	14
HRRIKAWLKKIKALARQLGVAA [MMI-0500]	25	24	48	−10	67	30	65	41	3	37		30
YARAAARQARAKALNRQLGVA [MMI-0200]	71	97	127		100	118		127	92	94	124	32

— patent US20190134153A1, “IMMUNOMODULATORY EFFECT OF INHALED KINASE INHIBITOR PEPTIDES IN LUNG” (MOERAE MATRIX, INC., priority 2017, published 2019)
